Data published in the Immune Epitope Database (IEDB).

Columns and labels:
Assay in all cases: IEDB peptide-MHC binding, purified MHC/competitive/radioactivity; filed as Kd, often an IC50 or EC50 that approximates it; ≥ and ≤ were set here for values at or beyond the usual limits of such assays
HLA-A*03:01 = molecular target: HLA-A*03:01
HLA-A*11:01 = molecular target: HLA-A*11:01
HLA-A*31:01 = molecular target: HLA-A*31:01
HLA-A*33:01 = molecular target: HLA-A*33:01
HLA-A*68:01 = molecular target: HLA-A*68:01
HLA-A*02:03 = molecular target: HLA-A*02:03
HLA-A*02:06 = molecular target: HLA-A*02:06
[1] = source organism: Vaccinia virus Copenhagen
[2] = source organism: Vaccinia virus WR
[3] = source organism: SARS coronavirus Tor2
[4] = source organism: Lassa virus Josiah
[5] = source organism: Mammarenavirus juninense
[6] = source organism: Lymphocytic choriomeningitis virus (strain Armstrong)
[7] = source organism: Dengue virus 3 Martinique/1243/1999
[8] = source organism: Mammarenavirus brazilense

| Sequence | Kd (HLA-A*03:01; [2]) | Kd (HLA-A*11:01; [2]) | Kd (HLA-A*31:01; [2]) | Kd (HLA-A*33:01; [2]) | Kd (HLA-A*68:01; [2]) | also measured |
| --- | --- | --- | --- | --- | --- | --- |
| ILARRPTPKK |  |  |  |  |  | Kd (HLA-A*03:01; [1]): 1.7 nM; Kd (HLA-A*11:01; [1]): 4 nM; Kd (HLA-A*31:01; [1]): 18100 nM; Kd (HLA-A*33:01; [1]): ≥ 70000 nM; Kd (HLA-A*68:01; [1]): 2390 nM |
| YTFAISYCR |  |  |  |  |  | Kd (HLA-A*03:01; [1]): 2760 nM; Kd (HLA-A*11:01; [1]): 3.35 nM; Kd (HLA-A*31:01; [1]): 0.933 nM; Kd (HLA-A*33:01; [1]): 1.73 nM; Kd (HLA-A*68:01; [1]): 0.418 nM |
| DIALALEQY | ≥ 78000 nM | ≥ 77900 nM | 10500 nM | ≥ 23900 nM | 364 nM |  |
| ATEGALNTPK |  |  |  |  |  | Kd (HLA-A*03:01; [3]): 82 nM; Kd (HLA-A*11:01; [3]): 4.73 nM; Kd (HLA-A*31:01; [3]): 2820 nM; Kd (HLA-A*33:01; [3]): ≥ 44600 nM; Kd (HLA-A*68:01; [3]): 220 nM |
| ATDYIASGQR | 148 nM | 73.2 nM | 197 nM | 2110 nM | 192 nM |  |
| LISLNSMYTR | 1090 nM | 22.8 nM | 1.11 nM | 115 nM | 38.6 nM |  |
| QQFANVISK | 55.6 nM | 2.38 nM | 1320 nM | ≥ 28300 nM | 710 nM |  |
| NMINKLYGY | 2560 nM | 18600 nM | ≥ 37800 nM | 14300 nM | ≥ 31900 nM |  |
| SVSIILANER | 2520 nM | 77.1 nM | 655 nM | 1640 nM | 0.432 nM |  |
| VTFLLLCGR |  |  |  |  |  | Kd (HLA-A*03:01; [4]): 3060 nM; Kd (HLA-A*11:01; [4]): 18.2 nM; Kd (HLA-A*31:01; [4]): 18.4 nM; Kd (HLA-A*33:01; [4]): 132 nM; Kd (HLA-A*68:01; [4]): 13.8 nM |
| SKQYIHCFRK |  |  |  |  |  | Kd (HLA-A*03:01; [5]): 4500 nM; Kd (HLA-A*11:01; [5]): 1520 nM; Kd (HLA-A*31:01; [5]): 898 nM; Kd (HLA-A*33:01; [5]): ≥ 26100 nM; Kd (HLA-A*68:01; [5]): 2540 nM |
| FMVSVSDFR | 3050 nM | 493 nM | 67.2 nM | 219 nM | 0.398 nM |  |
| GVTFQGKFKK |  |  |  |  |  | Kd (HLA-A*03:01; [3]): 761 nM; Kd (HLA-A*11:01; [3]): 536 nM; Kd (HLA-A*31:01; [3]): 2840 nM; Kd (HLA-A*33:01; [3]): ≥ 24100 nM; Kd (HLA-A*68:01; [3]): 1860 nM |
| LTYSQLMTLK |  |  |  |  |  | Kd (HLA-A*03:01; [4]): 29.7 nM; Kd (HLA-A*11:01; [4]): 11.5 nM; Kd (HLA-A*31:01; [4]): 1960 nM; Kd (HLA-A*33:01; [4]): 10700 nM; Kd (HLA-A*68:01; [4]): 5 nM |
| DHVSTLLTWH |  |  |  |  |  | Kd (HLA-A*03:01; [6]): ≥ 22400 nM; Kd (HLA-A*11:01; [6]): ≥ 69700 nM; Kd (HLA-A*31:01; [6]): 8610 nM; Kd (HLA-A*33:01; [6]): ≥ 70000 nM; Kd (HLA-A*68:01; [6]): 12300 nM |
| VLFSGVSWT |  |  |  |  |  | Kd (HLA-A*02:03; source organism: Dengue virus 1 Brazil/97-11/1997): 60.1 nM |
| IMTIDLDPV |  |  |  |  |  | Kd (HLA-A*02:03; [7]): 15.3 nM; Kd (HLA-A*02:06; [7]): 34.8 nM |
| CANGWIQYDK | 888 nM | 599 nM | 73.6 nM | ≥ 27000 nM | 19.1 nM |  |
| GLFKTLTGEI |  |  |  |  |  | Kd (HLA-A*02:03; source organism: Dengue virus 4 Philippines/H241/1956): 15 nM |
| SVSAKQLRTR | 168 nM | 90.8 nM | 700 nM | 5590 nM | 148 nM |  |
| MSRGYFEHMK | 31.8 nM | 7.24 nM | 22 nM | 2170 nM | 8.88 nM |  |
| VFKGFSDKVR | ≥ 70100 nM | 2640 nM | 201 nM | 925 nM | ≥ 26800 nM |  |
| EMVDELVTR | ≥ 78000 nM | ≥ 40900 nM | 28.5 nM | 94.3 nM | 2.54 nM |  |
| AIYVFCISLK |  |  |  |  |  | Kd (HLA-A*03:01; [3]): 161 nM; Kd (HLA-A*11:01; [3]): 489 nM; Kd (HLA-A*31:01; [3]): 11300 nM; Kd (HLA-A*33:01; [3]): ≥ 48900 nM; Kd (HLA-A*68:01; [3]): 8800 nM |
| FQSHQLWAT |  |  |  |  |  | Kd (HLA-A*02:06; source organism: Dengue virus 1 Singapore/S275/1990): 25.6 nM |
| TALAKCNLDH |  |  |  |  |  | Kd (HLA-A*03:01; [8]): ≥ 70000 nM; Kd (HLA-A*11:01; [8]): ≥ 69700 nM; Kd (HLA-A*31:01; [8]): 878 nM; Kd (HLA-A*33:01; [8]): ≥ 46900 nM; Kd (HLA-A*68:01; [8]): ≥ 35100 nM |
| LSCAVHLIIY | 10600 nM | ≥ 61400 nM | 5370 nM | 3830 nM | 361 nM |  |
| TQWSLFFFVY |  |  |  |  |  | Kd (HLA-A*03:01; [3]): 2510 nM; Kd (HLA-A*11:01; [3]): 358 nM; Kd (HLA-A*31:01; [3]): 1580 nM; Kd (HLA-A*33:01; [3]): 1370 nM; Kd (HLA-A*68:01; [3]): 6710 nM |
| EVRIPVDLVK | ≥ 64800 nM | 1660 nM | 9020 nM | 17000 nM | 656 nM |  |
